The text below walks through data of PMC5539292, “Calcium Ion Induced Structural Changes Promote Dimerization of Secretagogin, Which Is Required for Its Insulin Secretory Function” (Scientific Reports, 2017).

In data set [1] the target is recombinant human secretagogin (hSCGN) wild type (human) (UniProt O76038). In words: SEC; 450 µg protein on Superdex 200 HR 10/30 in PBS, 0.5 mL/min; samples pretreated with EGTA and DTT, then treated with Ca^2+ and H2O2. In general terms: SEC sorts molecules by how far they enter the pores of the column.
Data set [2] concerns the molecule itself. As to the kind of experiment: non-reducing SDS-PAGE of disulfide-linked dimers; recombinant protein incubated with 0 or 2 mM CaCl2 at R.T. for 15 min, then H2O2 at 37°C for 1 h; Coomassie blue staining.

As usually defined, the stoichiometry N is a count of units in the complex or per binding partner.

“recombinant human secretagogin (hSCGN) wild type (from UniProt O76038 1-276) (natural protein)”: the stoichiometry N in data set [1] came out at 2.

B1: purified hSCGN ΔEF1 (deletion of 1-52 a.a.) (domain or fragment, human, UniProt O76038 53-276, looked up)
chain: TVMKANLHKVKQQFMTTQDASKDGRIRMKELAGMFLSEDENFLLLFRRENPLDSSVEFMQIWRKYDADSSGFISAAELRNFLRDLFLHHKKAISEAKLEEYTGTMMKIFDRNKDGRLDLNDLARILALQENFLLQFKMDACSTEERKRDFEKIFAYYDVSKTGALEGPEVDGFVKDMMELVQPSISGVDLDKFREILLRHCDVNKDGKIQKSELALCLGLKINP
notes: human secretagogin (SCGN) without residues 1-52 (EF1); The methods describe ΔEF1 only as a pcDNA3.1 construct; also called ΔEF1 protein; recombinant ΔEF1; source: purified recombinant protein
Consider B1, for which, in data set [2], the binding result is on record as “binds”.
